Results reported in publication PMC4070910, “Cathepsin S Signals via PAR2 and Generates a Novel Tethered Ligand Receptor Agonist” (PLoS ONE, 2014).
Entries after “also recorded” stand apart in the source; their conditions may differ.

Columns and labels:
[1] = system: PKC (βII Ser660) phosphorylation in PAR2-transfected HeLa cells; assay: Western blot for p-PKC (Ser660) in PAR2-transfected HeLa cells; assay type: cell-based, human; conditions: 10 minutes, room temperature; SLIGRL 10 µM, SLIGKVDGTS 10 µM, KVDGTS 100 µM, cathepsin S 1 µM
Description: HeLa cells were transfected with PAR2 plasmid DNA as described above. Untransfected HeLa cells were plated as a control. Forty-eight hours after transfection, cells were rinsed with PBS three times. Transfected HeLa cells were incubated with either SLIGRL (10 µM), SLIGKVDGTS (10 µM), KVDGTS (100 µM), or cathepsin S (1 µM) at room temperature for 10 minutes. Untransfected HeLa cells were treated with SLIGRL (10 µM) in a similar manner. A subset of transfected HeLa cells remained untreated and served as a negative control. After incubation, cells were harvested, pelleted and lysed by sequential freeze-thaw cycles. Cell lysates were centrifuged at 4°C for 15 minutes. Supernatants were collected and protein concentrations were determined by Bradford assay. Equal amounts of cell lysates were loaded onto NuPAGE Novex Bis-Tris mini gels, electrophoresed and transferred to nitrocellulose membranes using standard protocols. The blot was first probed with rabbit anti-phospho-PKC (βII Ser660) antibody (Cell Signalling Technology, Danvers, MA), and later reprobed with a mouse anti-actin antibody to identify the control actin band at 42 kDa. Primary antibodies were labeled with HRP-conjugated donkey anti-rabbit antibody and HRP-conjugated donkey anti-mouse antibody, respectively, followed by detection of the position of the antigen on the blot.

[2] = system: PAR2M1 (leucine38 to alanine); assay: Calcium imaging in HeLa cells transfected with PAR2M1; assay type: cell-based, human; conditions: cathepsin S 2 µM, KVDGTS 100 µM
Description: (§1) Human PAR2 cDNA was cloned as an Xho I-Hind III fragment (1206 bp) into pcDNA3.1(−). 10 µg of DNA were diluted into 0.5 ml of DMEM and mixed with 0.5 ml of DMEM containing 10 µl of Lipofectamine 2000 transfection reagent and incubated at room temperature for 20 minutes. HeLa cells were grown to confluence, trypsinized and 1×10^6 cells were pelleted in a 15 ml tube by centrifugation at 1000 rpm for 5 minutes. The DMEM-Lipofectamine 2000-DNA mixture (1 ml) was added to the cell pellet, resuspended gently and incubated at room temperature for 20 minutes. Four ml of complete DMEM with 10% FBS were added to the tube, mixed by inverting the tube several times, plated into a 96-well glass bottom plate at 20,000 cells/well, and placed in a 37°C CO2 incubator. HeLa cells transfected with vector alone or salmon sperm DNA (shown in the figures) were plated as a control. The medium was aspirated two days after transfection. Fura-2 was used as a ratiometric calcium-sensitive indicator as follows. […]
(§2) Imaging was performed using a Zeiss Axiovert 200 M microscope platform equipped with a flipping filter wheel for ratiometric imaging. […] The software later analyzed all images taken during each excitation period. Typically, ratiometric changes were measured in 10–20 cells in each image. An average of the fluorescence of the cells in each image was calculated and plotted against time in seconds. […]

[3] = system: PAR2M3 (leucine38 and glycine40 to alanines); assay: Calcium imaging in HeLa cells transfected with PAR2M3; assay type: cell-based, human; conditions: cathepsin S 2 µM, KVDGTS 100 µM
Description: as §1, §2

[4] = system: luciferase-PAR2 (native PAR2); assay: Gaussia luciferase release, luciferase-PAR2; assay type: cell-based, human; conditions: cathepsin S 2 µM, 10 minutes, room temperature, triplicate
From the text: (§3) Gaussia luciferase cDNA was cloned, without its termination codon, into pcDNA3.1(−) as an Xho I-EcoR I fragment. Human PAR2 cDNA and its mutants, M1, M2 and M3, were generated using PCR primers designed to start after the signal sequence and end with a termination codon: […] and […] . The PCR amplified cDNAs were cloned into EcoR I and Hind III sites C-terminal to Gaussia luciferase cDNA. The resulting plasmids were called pGLPAR2, pGLPAR2M1, pGLPAR2M2 and pGLPAR2M3.
The plasmid DNAs pGLPAR2, pGLPAR2M1, pGLPAR2M2 and pGLPAR2M3 (10 µg of each) were transfected into 2×10^6 HeLa cells as described above and plated into 10 cm dishes. HeLa cells transfected with salmon sperm were used as controls. Forty-eight hours after transfection, the cells were washed twice with PBS, scraped and pelleted. Cells were scraped in order to eliminate the use of trypsin, which could activate PARs, and allowed for the luminescence assay to be performed in a small volume. Pelleted cells were resuspended into 200 µl PBS, and 100 µl of each was incubated with cathepsin S at a final concentration 2 µM for 10 minutes at room temperature. Untreated cells were processed by the same methods for a negative control. […] Luminescence assays were performed in triplicate on 50 µl of the supernatants according to the instructions of the manufacturer (New England Biolabs, Ipswich, MA).

[5] = system: luciferase-PAR2M3 (leucine38 and glycine40 to alanines); assay: Gaussia luciferase release, luciferase-PAR2M3; assay type: cell-based, human; conditions: cathepsin S 2 µM, 10 minutes, room temperature, triplicate
From the text: as §3
The QuickChange site-directed mutagenesis procedure (Agilent Technologies, Santa Clara, CA) was used to generate PAR2 N-terminal mutants. PAR2M1, with a single amino acid change, was created by substituting the leucine^38 codon, CTT, with alanine, GCT, using the primers: PAR2M1F, […], and PAR2M1R, […]. […]
The plasmid DNAs pGLPAR2, pGLPAR2M1, pGLPAR2M2 and pGLPAR2M3 (10 µg of each) were transfected into 2×10^6 HeLa cells as described above and plated into 10 cm dishes. […] Cells were scraped in order to eliminate the use of trypsin, which could activate PARs, and allowed for the luminescence assay to be performed in a small volume. […] Luminescence assays were performed in triplicate on 50 µl of the supernatants according to the instructions of the manufacturer (New England Biolabs, Ipswich, MA).

[6] = system: NHEKs which endogenously express PAR2; assay: Calcium imaging in normal human epidermal keratinocytes (NHEKs); assay type: cell-based
From the text: HeLa cells were obtained from the ATCC and maintained in DMEM supplemented with fetal bovine serum (Fisher Biochemicals), L-glutamine, penicillin and streptomycin. Normal human epidermal keratinocytes (NHEKs) were harvested from neonatal foreskin and maintained in Keratinocyte Serum-Free media supplemented with epidermal growth factor, bovine pituitary extract, L-glutamine, penicillin and streptomycin. All reagents were obtained from Invitrogen unless otherwise noted.
as §1, with “follows. 100 µl of complete DMEM containing 2 µM of Fura-2 were added to each well and left at room temperature in the dark for 1 hr.” for “follows.”
Imaging was performed using a Zeiss Axiovert 200 M microscope platform equipped with a flipping filter wheel for ratiometric imaging. […] The software later analyzed all images taken during each excitation period. Typically, ratiometric changes were measured in 10–20 cells in each image. An average of the fluorescence of the cells in each image was calculated and plotted against time in seconds.

B1: cathepsin S: Recombinant human cathepsin S, cysteine protease, expressed in E.coli, refolded and activated (protein, UniProt P25774 115-331, looked up)
Cathepsin S: LPDSVDWREKGCVTEVKYQGSCGACWAFSAVGALEAQLKLKTGKLVSLSAQNLVDCSTEKYGNKGCNGGFMTTAFQYIIDNKGIDSDASYPYKAMDQKCQYDSKYRAATCSKYTELPYGREDVLKEAVANKGPVSVGVDARHPSFFLYRSGVYYEPSCTQNVNHGVLVVGYGDLNGKEYWLVKNSWGHNFGEEGYIRMARNKGNHCGIASFPSYPEI
- PKC Ser660 phosphorylation (in words) [1]: induce PKC Ser660 phosphorylation
- calcium response on PAR2M1 (in words) [2]: induced normal calcium responses; also recorded: able to stimulate native PAR2 and PAR2M1
- calcium response on PAR2M3 (in words) [3]: did not induce calcium responses; also recorded: not PAR2M2 or PAR2M3
- receptor cleavage, luciferase luminescence (in words) [4]: cleaved the native and PAR2M1 receptors
- receptor cleavage, luciferase luminescence (in words) [5]: did not cleave PAR2M2 or PAR2M3
- calcium response in NHEKs (in words) ([6]; KVDGTS 100 µM, cathepsin S 2 µM): activated NHEKs
- calcium response to the substance as second agent after KVDGTS (in words) ([6]; NHEKs, KVDGTS 100 µM then cathepsin S 2 µM, second agent at 300 s): attenuated
- effect as first agent on calcium response to second agent (in words) ([6]; NHEKs, KVDGTS 100 µM, cathepsin S 2 µM, second agent at 300 s): abolishes the response to the subsequent addtion of KVDGTS
